# Test results reported in patent publication US9907791B2, “Ron inhibitors for use in preventing and treating bone loss” (UNIVERSITY OF UTAH RESEARCH FOUNDATION, priority 2014, dated 2018).
# Key:
# [1] = test system: MSP-overexpressing MDA-MB-231 cells; assay: Intratibial MSP-overexpressing MDA-MB-231 tumor-induced osteolysis; type: in vivo, NOD.SCID mice; conditions: treated 3 days post tumor cell injection, sacrificed 30 days
# Source text: (§1) All procedures involving mice and experimental protocols were approved by the Institutional Animal Care and Use Committee (IACUC) of the University of Utah. The RonTK−/− mice which reside on the FVB background, were crossed with NOD.SCID mice for an immune-compromised mouse model. As a control, wild-type FVB mice were also crossed with NOD.SCID mice. The STK−/− mice, which are on a C57BL/6 background, were compared to wild-type C57BL/6 mice as controls. Mice for all experiments were 6 to 8 weeks of age. For intratibial injections, 1×10^5 (PyMTor DU4475) or 3×10^5 (MDA-MB-231) tumor cells were resuspended in 10 μL matrigel and injected into the right tibia of anesthetized female FVB (PyMT) or NOD.SCID mice carrying various alleles of RON. Osteolysis was assessed by X-ray radiography. Dissected hindlimbs from mice sacrificed at the final time point in each experiment were placed in the Kodak In-vivo Multispectral Imaging System FX and exposed to X-ray radiography at 35 kV for 100 sec. Excess tumor tissue was removed from the bones prior to X-ray. Osteolytic lesions were quantified using Image J software (NCBI). All images were compared to the contralateral leg as an internal control.
# (§2) For in vivo experiments, the OSI-296 inhibitor was dissolved in 40% Trappsol with 0.01 M HCl, and mice were treated at a concentration of 200 mg/kg daily by oral gavage. […]
# c-Src = assay: Western blot of osteoclast lysates, phospho-Src; type: cell-based, mice
# Protocol: Cells were serum starved (0.5% FBS) for 3 hours prior to lysate collection. Inhibitors were added 1 hour prior to lysis and MSP was added 15 min prior to lysis when indicated. Cells were washed with 1×PBS and harvested in lysis buffer (25 mM Tris-HCl, pH 7.5, 0.42 M NaCl, 1.5 mM MgCl2, 0.5 mM EDTA, 1 mM DTT, 25% sucrose, and 0.1% Triton X-100) plus 100× protease arrest (Bioscience, Bozeman, Mont.) and 100× orthovanadate. Primary antibodies used for immunoblotting include: anti-MSP (Santa Cruz, sc-6090, Dallas, Tex.) at a 1:250 dilution, anti-pan Akt (Cell Signaling, #4691S, Beverly, Mass.) at a 1:1000 dilution, anti-pan Erk (Cell Signaling, #4695, Beverly, Mass.) at a 1:1000 dilution, anti-phospho Akt (Cell Signaling, #9271 L, Beverly, Mass.) at a 1:500 dilution, anti-phospho Erk (Cell Signaling, #4370S, Beverly, Mass.) at a 1:500 dilution, anti-Src (Cell Signaling, #2110, Beverly, Mass.) at a 1:500 dilution, and anti-phospho Src (Y416) (Cell Signaling, #2113, Beverly, Mass.) at a 1:500 dilution. The secondary antibodies used were HRP-conjugated anti-goat IgG (Santa Cruz, Dallas, Tex.) and anti-rabbit IgG (Santa Cruz, Dallas, Tex.). Chemiluminescent signals were detected using Immun-Star HRP (BioRad, Hercules, Calif.).
# PyMT-MSP tumor cells = assay: Intratibial PyMT-MSP tumor-induced osteolysis; type: in vivo, mice
# Source text: as §1
# Hindlimb bones were excised from mice at the time of sacrifice and bones were fixed in 10% neutral-buffered formalin, decalcified in Formical-2000 (Decal Corporation, Tallman, N.Y.) for 8 days and embedded in paraffin for hematoxylin and eosin (H & E) or immunohistochemical staining. Osteoclast number was assessed as TRAP^+ multinucleated cells containing 4 or more nuclei and reported as TRAP^+ cells per field. Three sections per mouse and 5 fields per section were used for quantification with fields representing the entire length of the tibia. Tumor proliferation rate was reported as the number of cells which were positive for phospho-H3 staining compared to the number of unstained cells per field expressed as a percent. Three sections per mouse and 5 fields per section were used for quantification with analysis being restricted to within the bone marrow cavity. […]
# PyMT control tumor cells = assay: Intratibial PyMT control tumor-induced osteolysis; type: in vivo, mice
# Source text: as §1, §2
molecule,measurement,setting,value
"muRANK-Fc: murine RANKL antagonist (Amgen) (protein, left off: a dimerising Fc or GST) VTPPCTQERHYEHLGRCCSRCEPGKYLSSKCTPTSDSVCLPCGPDEYLDTWNEEDKCLLHKVCDAGKALVAVDPGNHTAPRRCACTAGYHWNSDCECCRRNTECAPGFGAQHPLQLNKDTVCTPCLLGFFSDVFSSTDKCKPWTNCTLLGKLEAHQGTTESDVVCSSSMTLRRPPKEAQAYLPS",osteolysis from MSP-expressing MDA-MB-231 tumor cells,[1],did not significantly reduce
same,phosphorylated c-Src in WT osteoclasts,c-Src,decrease in phosphorylated c-Src
same,MSP-driven osteolysis in Ron TK−/− mice,"PyMT-MSP tumor cells; Ron TK−/− mice, treatment began 3 days post tumor cell injection",did not reduce this further
same,TRAP+ osteoclasts in tumor-bearing bones,PyMT-MSP tumor cells; TRAP staining of bone sections,lack of TRAP+ cells
same,osteolysis from PyMT-MSP tumors,"PyMT-MSP tumor cells; WT mice, treatment began 3 days post tumor cell injection",significant osteolysis even in the presence of the RANKL antagonist
same,osteolysis from PyMT control tumors (no MSP),"PyMT control tumor cells; WT mice, treatment began 3 days post injection, sacrificed 42 days post injection",significantly impaired
same,tumor growth of PyMT control bone lesions,PyMT control tumor cells; caliper measurements,no significant effect on tumor growth
